# In patent US8168594B2, “Method for treating celiac disease” (Alba Therapeutics Corporation, priority 2006, dated 2012):
# Assays:
# rabbit ileal mucosa = conditions: cited from earlier work
# [1] = Release from delayed-release particles in Simulated Gastric Fluid (dissolution apparatus, HPLC); type: physicochemical; conditions: delayed-release particles containing 4-6% peptide; SGF containing 0.1% v/v Tween 80K, 37° C.; time course of 60 minutes
# Experimental: (§1) The stability of delayed-release particles containing 4-6% tight junction antagonist peptide (SEQ ID NO: 1) was performed. Delayed-release particles prepared as described above were exposed to Simulated Gastric Fluid (SGF) containing 0.1% v/v Tween 80K under controlled temperature (37° C.±0.5° C.) and agitation in a dissolution apparatus for 1 hour. The beads were removed from the SGF and exposed to Simulated Intestinal Fluid (SIF) containing 0.1% v/v Tween 80K. Samples were pulled from the bath and analyzed by HPLC at 220 nm on a Inertsil ODS-2 HPLC Column (150 mm×3 mm, 5 μm) with an Inertsil ODS-2 HPLC Guard Column (20 mm×4.6 […], 5 μm). Mobile Phase A: 92:8 Water:ACN, 0.1% TFA Mobile Phase B: ACN, 0.1% TFA). The chromatographic conditions are shown below.
# (§2) • Run time: 17 min • Detection: 220 nm • Response time: 0.5 sec • Column Temp.: 40° C.±1° C. • Auto Sampler Temp: 10° C.±2° c. • Injection Volume: 5 μl of solution
# (§3) The percentage of total tight junction effector released is determined by comparison to a reference standard of the effector.
# Simulated Gastric Fluid may be prepared as follows: per liter, place the following into a container: 2.0 gram sodium chloride, 7.0 mL concentrated hydrochloric acid, and 1.0 L water. Stir until completely dissolved. Check the pH and adjust to 1.2±0.1 with dilute HCl or NaOH. De-aerate medium. To this solution Tween 80 was added to 0.1% (v/v). […]
# [2] = Release from delayed-release particles in Simulated Intestinal Fluid (dissolution apparatus, HPLC); type: physicochemical; conditions: delayed-release particles containing 4-6% peptide, SIF containing 0.1% v/v Tween 80K, after 1 hour in SGF
# Experimental: as §1, §2, §3
# SIF can be prepared as follows: place the following into a container: 1.9 Kg distilled water, 136 g monobasic potassium phosphate, and 18.1 gram of sodium hydroxide. Stir until completely dissolved. Dilute the solution with 18.0 Kg water. Check the pH and adjust to 6.8±0.1 with dilute HCl or NaOH. De-aerated medium. […]
substance,measurement,setting,value
ZOT: Zonula occludens toxin produced by Vibrio cholerae; tight junction agonist,effect on intestinal permeability,rabbit ileal mucosa,increased the intestinal permeability
"GGVLVQPG [SEQ ID NO:1, tight junction antagonist peptide]",antagonist peptide released in simulated gastric fluid,[1],less than 8%
same,antagonist peptide released in simulated intestinal fluid within 15 minutes,[2]; within 15 minutes,Over 90%
same,antagonist peptide released in simulated intestinal fluid within 60 minutes,[2]; within 60 minutes,essentially all
